Measured values from paper doi:10.1101/2023.01.16.524289, “HuR modulation with tanshinone mimics impairs LPS response in murine macrophages”.

Target: rM1M2 HuR (RRM1-RRM2) (UniProt Q15717 18-186)
Experiment: HTRF; 20 nM protein, 50 nM probe; TM7nox inhibits with IC50 0.7956 uM (small-molecule IC50, not an affinity); REMSA: 30 min incubation, 4% native gel, buffer not given; HTRF: Cisbio protocol; pull-down: lysis in PEB (20 mM Tris-HCl pH 7.5, 100 mM KCl, 5 mM MgCl2, 0.5% NP-40), binding in TENT (20 mM Tris-HCl pH 8.0, 2 mM EDTA, 500 mM NaCl, 1% Triton X-100), 4 C
Details: protein: recombinant; tags: His-tag; label: 5'-biotin; single strand

Sequence of rM1M2 HuR (RRM1-RRM2) (Q15717 18-186): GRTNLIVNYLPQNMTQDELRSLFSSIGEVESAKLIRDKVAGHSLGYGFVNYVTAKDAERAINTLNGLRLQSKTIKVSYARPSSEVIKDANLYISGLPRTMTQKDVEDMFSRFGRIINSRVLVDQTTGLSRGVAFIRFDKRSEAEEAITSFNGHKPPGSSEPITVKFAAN

AUUAUUUAUUAUUUAUUUAUUAUUUA (ssRNA) [Bi-TNF ARE probe (26 nt)]: binds.
